Literature values, collected in article PMC4132707.
pKd: −log10 of the molar value.

Experiments:
[1] = molecular target: H1K26me3 peptide (Homo sapiens) (UniProt P10412)
[2] = molecular target: H3K27me3 peptide (Homo sapiens) (UniProt P68431)

EED, sequence (O75530 2-441): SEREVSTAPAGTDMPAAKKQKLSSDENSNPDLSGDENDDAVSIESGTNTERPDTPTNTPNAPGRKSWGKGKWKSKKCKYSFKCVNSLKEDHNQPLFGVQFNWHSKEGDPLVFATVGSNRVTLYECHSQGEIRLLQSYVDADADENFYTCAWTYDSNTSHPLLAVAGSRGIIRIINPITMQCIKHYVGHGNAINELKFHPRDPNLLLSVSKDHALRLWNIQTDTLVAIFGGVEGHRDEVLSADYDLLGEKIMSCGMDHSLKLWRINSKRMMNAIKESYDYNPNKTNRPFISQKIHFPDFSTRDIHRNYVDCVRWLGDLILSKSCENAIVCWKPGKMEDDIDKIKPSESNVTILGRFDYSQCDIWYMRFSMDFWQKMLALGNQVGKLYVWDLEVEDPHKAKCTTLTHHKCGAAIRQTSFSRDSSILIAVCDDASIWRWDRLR
H1K26me3 peptide (Homo sapiens), sequence (P10412 2-219): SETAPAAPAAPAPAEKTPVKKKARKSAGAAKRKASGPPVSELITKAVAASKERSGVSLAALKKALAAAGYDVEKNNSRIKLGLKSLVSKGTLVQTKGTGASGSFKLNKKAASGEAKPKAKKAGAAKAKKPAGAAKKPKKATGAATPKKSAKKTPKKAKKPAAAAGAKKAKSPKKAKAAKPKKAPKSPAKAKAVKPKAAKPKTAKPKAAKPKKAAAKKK

pKd [1]: < 4.70
pKd [2]: < 4.70
Substance: EED (from UniProt O75530)
